Measured values from the Human Domainome abundance scans (Beltran et al. 2025).
± gives the uncertainty stated by the source.

Experiment: abundance fitness (aPCA) (normalised: wild type 0, dead -1); higher = more abundant; growth selection in yeast, the domain comes from the species named
Conditions: Homo sapiens

NEDD4-like E3 ubiquitin-protein ligase WWP2 L446M, O00308
abundance fitness: -0.05 ± 0.03

NEDD4-like E3 ubiquitin-protein ligase WWP2 L446P, O00308
abundance fitness: -0.394 ± 0.083

NEDD4-like E3 ubiquitin-protein ligase WWP2 L446Q, O00308
abundance fitness: -0.491 ± 0.058

NEDD4-like E3 ubiquitin-protein ligase WWP2 L446R, O00308
abundance fitness: -0.901 ± 0.054

NEDD4-like E3 ubiquitin-protein ligase WWP2 L446S, O00308
abundance fitness: -0.601 ± 0.054

NEDD4-like E3 ubiquitin-protein ligase WWP2 L446T, O00308
abundance fitness: -0.384 ± 0.071

NEDD4-like E3 ubiquitin-protein ligase WWP2 L446V, O00308
abundance fitness: -0.29 ± 0.052

NEDD4-like E3 ubiquitin-protein ligase WWP2 L446W, O00308
abundance fitness: -0.435 ± 0.065

NEDD4-like E3 ubiquitin-protein ligase WWP2 L446Y, O00308
abundance fitness: -0.072 ± 0.07

NEDD4-like E3 ubiquitin-protein ligase WWP2 M440A, O00308
abundance fitness: -0.137 ± 0.1

NEDD4-like E3 ubiquitin-protein ligase WWP2 M440C, O00308
abundance fitness: -0.491 ± 0.32

NEDD4-like E3 ubiquitin-protein ligase WWP2 M440D, O00308
abundance fitness: -0.138 ± 0.29

NEDD4-like E3 ubiquitin-protein ligase WWP2 M440E, O00308
abundance fitness: -0.085 ± 0.11

NEDD4-like E3 ubiquitin-protein ligase WWP2 M440G, O00308
abundance fitness: -0.284 ± 0.11

NEDD4-like E3 ubiquitin-protein ligase WWP2 M440I, O00308
abundance fitness: -0.021 ± 0.076

NEDD4-like E3 ubiquitin-protein ligase WWP2 M440K, O00308
abundance fitness: 0.4 ± 0.12

NEDD4-like E3 ubiquitin-protein ligase WWP2 M440L, O00308
abundance fitness: -0.065 ± 0.1

NEDD4-like E3 ubiquitin-protein ligase WWP2 M440N, O00308
abundance fitness: 0.283 ± 0.12

NEDD4-like E3 ubiquitin-protein ligase WWP2 M440Q, O00308
abundance fitness: 0.206 ± 0.11

NEDD4-like E3 ubiquitin-protein ligase WWP2 M440R, O00308
abundance fitness: -0.103 ± 0.087

NEDD4-like E3 ubiquitin-protein ligase WWP2 M440S, O00308
abundance fitness: -0.102 ± 0.086

NEDD4-like E3 ubiquitin-protein ligase WWP2 M440T, O00308
abundance fitness: -0.117 ± 0.033

NEDD4-like E3 ubiquitin-protein ligase WWP2 M440V, O00308
abundance fitness: -0.114 ± 0.079

NEDD4-like E3 ubiquitin-protein ligase WWP2 M440W, O00308
abundance fitness: -0.831 ± 0.3

NEDD4-like E3 ubiquitin-protein ligase WWP2 M452A, O00308
abundance fitness: -0.01 ± 0.048

NEDD4-like E3 ubiquitin-protein ligase WWP2 M452C, O00308
abundance fitness: 0.009 ± 0.055

NEDD4-like E3 ubiquitin-protein ligase WWP2 M452D, O00308
abundance fitness: -0.12 ± 0.056

NEDD4-like E3 ubiquitin-protein ligase WWP2 M452E, O00308
abundance fitness: 0.046 ± 0.046

NEDD4-like E3 ubiquitin-protein ligase WWP2 M452F, O00308
abundance fitness: -0.097 ± 0.05

NEDD4-like E3 ubiquitin-protein ligase WWP2 M452G, O00308
abundance fitness: -0.197 ± 0.051

NEDD4-like E3 ubiquitin-protein ligase WWP2 M452H, O00308
abundance fitness: -0.258 ± 0.066

NEDD4-like E3 ubiquitin-protein ligase WWP2 M452I, O00308
abundance fitness: -0.001 ± 0.053

NEDD4-like E3 ubiquitin-protein ligase WWP2 M452K, O00308
abundance fitness: -0.36 ± 0.11

NEDD4-like E3 ubiquitin-protein ligase WWP2 M452L, O00308
abundance fitness: -0.108 ± 0.042

NEDD4-like E3 ubiquitin-protein ligase WWP2 M452P, O00308
abundance fitness: -0.337 ± 0.054

NEDD4-like E3 ubiquitin-protein ligase WWP2 M452Q, O00308
abundance fitness: -0.107 ± 0.063

NEDD4-like E3 ubiquitin-protein ligase WWP2 M452R, O00308
abundance fitness: -0.103 ± 0.035

NEDD4-like E3 ubiquitin-protein ligase WWP2 M452S, O00308
abundance fitness: -0.069 ± 0.04

NEDD4-like E3 ubiquitin-protein ligase WWP2 M452T, O00308
abundance fitness: -0.017 ± 0.033

NEDD4-like E3 ubiquitin-protein ligase WWP2 M452V, O00308
abundance fitness: 0.034 ± 0.038

NEDD4-like E3 ubiquitin-protein ligase WWP2 M452W, O00308
abundance fitness: -0.194 ± 0.057

NEDD4-like E3 ubiquitin-protein ligase WWP2 M452Y, O00308
abundance fitness: -0.159 ± 0.049

NEDD4-like E3 ubiquitin-protein ligase WWP2 N466A, O00308
abundance fitness: -0.242 ± 0.034

NEDD4-like E3 ubiquitin-protein ligase WWP2 N466C, O00308
abundance fitness: -0.169 ± 0.048

NEDD4-like E3 ubiquitin-protein ligase WWP2 N466D, O00308
abundance fitness: -0.377 ± 0.064

NEDD4-like E3 ubiquitin-protein ligase WWP2 N466E, O00308
abundance fitness: -0.238 ± 0.069

NEDD4-like E3 ubiquitin-protein ligase WWP2 N466F, O00308
abundance fitness: -0.145 ± 0.071

NEDD4-like E3 ubiquitin-protein ligase WWP2 N466G, O00308
abundance fitness: -0.184 ± 0.051

NEDD4-like E3 ubiquitin-protein ligase WWP2 N466H, O00308
abundance fitness: -0.169 ± 0.075

NEDD4-like E3 ubiquitin-protein ligase WWP2 N466I, O00308
abundance fitness: -0.261 ± 0.079

NEDD4-like E3 ubiquitin-protein ligase WWP2 N466K, O00308
abundance fitness: -0.202 ± 0.07

NEDD4-like E3 ubiquitin-protein ligase WWP2 N466M, O00308
abundance fitness: -0.188 ± 0.07

NEDD4-like E3 ubiquitin-protein ligase WWP2 N466P, O00308
abundance fitness: -0.636 ± 0.075

NEDD4-like E3 ubiquitin-protein ligase WWP2 N466Q, O00308
abundance fitness: -0.06 ± 0.068

NEDD4-like E3 ubiquitin-protein ligase WWP2 N466R, O00308
abundance fitness: -0.164 ± 0.043

NEDD4-like E3 ubiquitin-protein ligase WWP2 N466S, O00308
abundance fitness: -0.175 ± 0.049

NEDD4-like E3 ubiquitin-protein ligase WWP2 N466T, O00308
abundance fitness: -0.255 ± 0.063

NEDD4-like E3 ubiquitin-protein ligase WWP2 N466V, O00308
abundance fitness: -0.212 ± 0.048

NEDD4-like E3 ubiquitin-protein ligase WWP2 N466W, O00308
abundance fitness: -0.513 ± 0.047

NEDD4-like E3 ubiquitin-protein ligase WWP2 N466Y, O00308
abundance fitness: -0.366 ± 0.085

NEDD4-like E3 ubiquitin-protein ligase WWP2 P444A, O00308
abundance fitness: -0.089 ± 0.059

NEDD4-like E3 ubiquitin-protein ligase WWP2 P444D, O00308
abundance fitness: 0.148 ± 0.061

NEDD4-like E3 ubiquitin-protein ligase WWP2 P444F, O00308
abundance fitness: 0.098 ± 0.067

NEDD4-like E3 ubiquitin-protein ligase WWP2 P444G, O00308
abundance fitness: 0.089 ± 0.049

NEDD4-like E3 ubiquitin-protein ligase WWP2 P444H, O00308
abundance fitness: 0.015 ± 0.037

NEDD4-like E3 ubiquitin-protein ligase WWP2 P444I, O00308
abundance fitness: -0.2 ± 0.049

NEDD4-like E3 ubiquitin-protein ligase WWP2 P444K, O00308
abundance fitness: 0.098 ± 0.071

NEDD4-like E3 ubiquitin-protein ligase WWP2 P444L, O00308
abundance fitness: 0.036 ± 0.053

NEDD4-like E3 ubiquitin-protein ligase WWP2 P444M, O00308
abundance fitness: 0.09 ± 0.062

NEDD4-like E3 ubiquitin-protein ligase WWP2 P444N, O00308
abundance fitness: 0.105 ± 0.038

NEDD4-like E3 ubiquitin-protein ligase WWP2 P444Q, O00308
abundance fitness: 0.065 ± 0.068

NEDD4-like E3 ubiquitin-protein ligase WWP2 P444R, O00308
abundance fitness: 0.083 ± 0.041

NEDD4-like E3 ubiquitin-protein ligase WWP2 P444T, O00308
abundance fitness: 0.045 ± 0.063

NEDD4-like E3 ubiquitin-protein ligase WWP2 P444V, O00308
abundance fitness: 0.065 ± 0.058

NEDD4-like E3 ubiquitin-protein ligase WWP2 P444W, O00308
abundance fitness: -0.059 ± 0.05

NEDD4-like E3 ubiquitin-protein ligase WWP2 P447A, O00308
abundance fitness: -0.234 ± 0.043

NEDD4-like E3 ubiquitin-protein ligase WWP2 P447C, O00308
abundance fitness: -0.458 ± 0.07

NEDD4-like E3 ubiquitin-protein ligase WWP2 P447D, O00308
abundance fitness: -0.304 ± 0.083

NEDD4-like E3 ubiquitin-protein ligase WWP2 P447E, O00308
abundance fitness: -0.185 ± 0.062

NEDD4-like E3 ubiquitin-protein ligase WWP2 P447F, O00308
abundance fitness: -0.331 ± 0.088

NEDD4-like E3 ubiquitin-protein ligase WWP2 P447H, O00308
abundance fitness: -0.381 ± 0.075

NEDD4-like E3 ubiquitin-protein ligase WWP2 P447I, O00308
abundance fitness: -0.433 ± 0.051

NEDD4-like E3 ubiquitin-protein ligase WWP2 P447K, O00308
abundance fitness: -0.17 ± 0.052

NEDD4-like E3 ubiquitin-protein ligase WWP2 P447L, O00308
abundance fitness: -0.228 ± 0.048

NEDD4-like E3 ubiquitin-protein ligase WWP2 P447M, O00308
abundance fitness: -0.203 ± 0.045

NEDD4-like E3 ubiquitin-protein ligase WWP2 P447N, O00308
abundance fitness: -0.11 ± 0.075

NEDD4-like E3 ubiquitin-protein ligase WWP2 P447Q, O00308
abundance fitness: -0.289 ± 0.07

NEDD4-like E3 ubiquitin-protein ligase WWP2 P447R, O00308
abundance fitness: -0.316 ± 0.04
